{"source": "paper PMC5147519", "target": "K18 WT tau (tau four-repeat domain), poly-histidine tag intact (human)", "assay": "SDS-PAGE and Western blot (SDS-resistant dimers and aggregates); soluble and pellet fractions of IPTG-induced E. coli, 15% Tris-glycine SDS-PAGE, blot with polyclonal anti-human tau A0024", "data": [{"substance": "K18 WT tau (tau four-repeat domain), poly-histidine tag intact (domain or fragment)", "values": [{"measurement": "stoichiometry N", "result": 2}]}]}
